Results from patent publication US20260265332A1, “PROCESS FOR PREPARATION OF DUAL GIP/GLP-1 PEPTIDES HAVING CONTROLLED PARTICLE SIZE” (ASSIA CHEMICAL INDUSTRIES LTD., priority 2023, published 2026).
Values joined by “and” are separate entries in the source; they are usually repeats but may differ in a detail not shown here. Equal entries are not always repeated.

Columns and labels:
Assay type in all cases: physicochemical
[1] = Flowability, flow through an orifice (BEP2 Flowability Tester, 25 mm nozzle); details: lyophilized Tirzepatide powder; flow through funnel, 25 mm aperture
Excerpt: Instrument: BEP2 Flowability Tester from Copley Scientific, with Funnel Attachment and Manually Operated Stirrer with a nozzle corresponding to aperture size of 25 mm.
Methodology: Flow Through an Orifice
The test sample was introduced into the funnel and the time required for the entire sample to flow out of the funnel was measure using a suitable stopwatch.
The flow rate results are expressed in terms of mass vs time, i.e., grams per second.

[2] = Bulk density (BD), USP 2014 Method I (616) Bulk Density and Tapped Density of Powders; details: lyophilized Tirzepatide powder, before particle size reduction
Experimental: Bulk density (BD) was measured according to USP 2014 Method I (616) Bulk Density and Tapped Density of Powders.

[3] = Particle size distribution by laser diffraction (Malvern Mastersizer 3000, Mie theory, Isopar-G); details: Tirzepatide powder after particle size reduction (jet milling or sieving)
Experimental: As used herein, particle size distribution is determined by means of laser diffractometry. More specifically, unless otherwise indicated, the particle size was determined using a Mastersizer 3000 from Malvern Instruments. Preferably, particle size and particle size distribution are determined by laser light diffraction, using Mie theory, and Isopar-G dispersant (isoparaffinic fluid (CAS No) 64742-48-9)) refractive index 1.42.
It will be understood that the term “D(90)” as used herein refers to a particle size distribution where 90% of the volume of particles have a diameter lower than the D(90) value.
• Instrumentation: Malvern Laser Diffraction Mastersizer 3000, Hydro My cell • Measuring range: 0.01-3500 mcm • Analysis model: Mie Theory • Powder RI: 1.488, Absorption: 1 • Dispersant name: Isopar-G • Dispersant RI: 1.42 • Speed rate of the flow cell: 2500 • Internal Sonication: 1 minute • Recirculation time: 1 minute

Substance	flowability [1]	BD (bulk density) [2] [g/mL]	particle size d(0.9) [3]
Tirzepatide [Example 1B]	non flowable	0.007	–
Tirzepatide [Example 3A]	–	–	59 μm and 59.1 μm
Tirzepatide [Example 3B]	–	–	128 μm and 128.0 μm
Tirzepatide [Example 1]	6.1 g/s	0.1	–
Tirzepatide [Example 3]	–	–	31 μm and 30.9 μm
Tirzepatide [Example 1A]	9.7 g/s	0.13	–
Tirzepatide [Example 2]	–	–	21.9 μm
